Values quoted from earlier work as cited in publication PMC5938170.

Key:
[1] = biological target: Met (Homo sapiens) (UniProt P08581)
[2] = biological target: EGFR (Homo sapiens) (UniProt P00533)

UniProt P08581, sequence (P08581 25-932): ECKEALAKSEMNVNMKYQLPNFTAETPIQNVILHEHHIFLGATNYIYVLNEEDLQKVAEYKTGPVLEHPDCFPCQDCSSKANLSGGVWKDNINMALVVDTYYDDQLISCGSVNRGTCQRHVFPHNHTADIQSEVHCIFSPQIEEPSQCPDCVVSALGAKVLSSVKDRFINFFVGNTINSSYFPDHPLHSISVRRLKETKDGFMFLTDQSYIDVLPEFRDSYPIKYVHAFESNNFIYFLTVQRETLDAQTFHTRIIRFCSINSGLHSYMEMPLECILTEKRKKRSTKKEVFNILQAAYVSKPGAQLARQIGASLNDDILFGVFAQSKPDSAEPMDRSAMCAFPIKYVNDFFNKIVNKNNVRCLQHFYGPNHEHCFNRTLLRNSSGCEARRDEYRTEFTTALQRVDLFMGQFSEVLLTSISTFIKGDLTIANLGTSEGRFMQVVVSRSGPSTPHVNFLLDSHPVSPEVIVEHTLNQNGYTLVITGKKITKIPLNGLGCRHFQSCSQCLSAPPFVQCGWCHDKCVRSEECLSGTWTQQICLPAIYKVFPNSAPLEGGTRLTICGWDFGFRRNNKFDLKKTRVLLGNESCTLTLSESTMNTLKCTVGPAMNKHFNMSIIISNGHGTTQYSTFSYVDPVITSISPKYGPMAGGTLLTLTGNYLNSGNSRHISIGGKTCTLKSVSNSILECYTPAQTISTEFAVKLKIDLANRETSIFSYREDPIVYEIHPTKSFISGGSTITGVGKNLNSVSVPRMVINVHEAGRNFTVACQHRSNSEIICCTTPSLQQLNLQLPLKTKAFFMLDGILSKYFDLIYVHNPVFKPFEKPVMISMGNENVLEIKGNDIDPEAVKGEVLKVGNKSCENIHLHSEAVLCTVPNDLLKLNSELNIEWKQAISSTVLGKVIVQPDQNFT

Decorin (from UniProt P07585)
Kd [1]: 2 nM | Kd [2]: 75 nM
